Experimental data as given in the NTF2 design screens of Basanta et al. (2020).

Assay: protease stability score; higher = more stable; yeast display proteolysis, trypsin and chymotrypsin;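 note: relative to predicted unfolded state with 0 unfolded-like and 1 meaning tenfold more protease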

SKEEKDYWEFAEIWISDLLTGDEDLRKHLHDPDVRYHYHQGDKTFETHGMEEVLKLDKDLWRRLGVKHLEIHRVEVQGDKIHLDARLQVGDKSTEVHILLIVVNGKVKHIHIFVH
protease stability score: 1.2

SKEEKETEKAMEESLHIFETGDWKAFHDNVDPNVRLHIGDKDSHGRERATELYLTVVHHLGINHIQIDSFQINIQGDKVVINIDGTSHVGDKWSRIRVHIVERKIDGRWLISSFKMHIE
protease stability score: 1.07

SKEETWVKEAYELMTRTIRTGDERLMHELLDPHVRTVINGQESHGREVVLRFLEHIRYEEVTPTHIRIIGDWIDVDIRIHGHFDGRRYELRSTLFMRKVDGKWDLTEIRII
protease stability score: 0.709

SKHKEQTEHVMKTWEHAMRTGDEDRVSHLLDPNVRFEVGNKEFHGREEMSRHIVEMRFTELRLRDVETQGDKVHFEGEMRGIIDGKEETNKLIVIIYKVNGRWHIRSVHVE
protease stability score: 0.618

SKISEFVKMLLEIEVHAHETGDWRHYQEMMDPHVKFELNIGNFHTLDHGRDRLIDWIEHHIKRADHLHVHIREVHVIGDKVSVRGELKTNVNGVDLEYEILQIIIVVDGRFKSIQHSYL
protease stability score: 0.155

SKLEEDAHKMLDKILHNIRTGDEESEHRLADPEVKFHIGDKTFHGMSLVSKLLLHLRIRTERIENVNIRVINGVAEVEMRGVRDGEFNGVRVQVTVEEHFIIDKINGRWIIREIHVHII
protease stability score: 1.29

SKLEEDTRRAVEHFLKNIHTGDEHELTKMLDPNVRLDFDGREYHGREEVVHYLFRIMHEFGADHSEVKHWHVQGDFMQVDTRLHVGDKFFETELYMHKINGRWYVKHIIIR
protease stability score: 2.13

SKREDKWKHHVEVLIRLWQTGDEDTLKELFDPNVLLLVIYNGRNIHNHGRELAMHWLRYLLEHLGIDHYHIESSSVIGDKVEIKSRVYIGDKTYELDLEIRIIDGRLKSLNVNIE
protease stability score: 0.8

SLEEHAFRLALHLLENMWLTGDEELFERLLDPHARLEFENHKYHGRDIVSEFMRRIKNLTFHRIIFRNRDVQGEKVSFIMETDVEWNGKRHIEHTHITVHKINGVWLIHEVDIR
protease stability score: 1.42

SMEEMSELYIKWWMTGDWDKLTNNADPHTRVNVGNFESVGMEHLIELMLRHVKHFGINHSILRSHDTQGDKVHVDGELHVNGRTARIVLHLEIVNGRIKSESVESRSEVFEEHLHKVLR
protease stability score: 0.635

SNEDEIAQHLVRLILNAHLTGDEKLLETLADPTMRFTLRIGDKQHERHGREEWIKWVRHTIERIDHIEIRIDDRRIQGDKIEIDGTLRLEIGDKVNQVRVDIIIHLVNGRLKEVIIEVV
protease stability score: 2.06

SNEQKEFELLLRLMKEIIETGDEENFHRMVDPHARLQVGDKHHHGREEMSRWFEEFTKRFKNAKVHIDHVDSVDGQLHIDTTLIFDGVERRVEIIVRKVDGKWILEEVRII
protease stability score: 1.08

SQDERDVKKFVDLYERTVETGNEEDMERLMDPHVRMEVGDKHEHGRHIVIRVLHELGADHVDIHHVNVQGEKIHIHGRLHVDGRIHHVEIHAKKVNGKWIMKLVIIR
protease stability score: 1.11

SQDKETSDEAFRIWVESYETGNEHLEEHMVDPNARSRVGDKELIGMEHFIKIMEKIKNATLEIRHRSYTEIDGRLRWHTQLYIEYGDKRIEREIIIIVHKVNGRWSIEHFEVR
protease stability score: 0.973

SQEEEIVLHISQRLLRALSTGNEKEFEELLDPNARVSEIQGDKSYSHHGREEFLIFMREWFEKMGIKHFHIEHIDVQGNWVRVRGRITFNGREHDVNILILVIDGRVRSFTIEIK
protease stability score: 1.57

SQEEKEIRDWLHILANARLTGDEDWLLKQADPNTRLEFNGVDLVGMEHNIKFLLHLERQHGMRLHNIHIHHVEVQGDKVESDIREDGEVNGRRMIFTSIIIVRKVNGRWILRSFHLH
protease stability score: 1.21

SQEEQDTEEFLRHLHEALRTGDEKTLRTLIDPHVRLFINGVHLHGREELVRWLKEFVDRLGIDVSTLHIDDMRIIGNFIELDTKIRWKIGDKTEEVETRFIIVKIDGRWYVRQVEMG
protease stability score: 2.6

SQEERELHRALKELFDRFITGDWDKLQKLLDPEVRLNINGQEIHGREEVWKRKIEEFEKFGIDHIKFHLEHERRQGDKIELDGRLEIRVGDKRLEHEVRIVFLKIDGKWILRSEEIN
protease stability score: 1.47

SQEERTHRELLRLLLESLTTGDEDTLRHLMDPHMIIRIGDKHFHGWDWIVHLFRKLGADHMEVEIRDEDIIDGRIRHHGSLHIHVDGRTEHIETILFVEKVNGRWVIRSVEFR
protease stability score: 1.64

SQIEEDIRRQLKRFNDALTTGDEDEIMNLFDPDVRWIQGNYEHHGREFYLEMFREWRTHSIRIDIDRMEIQGDKVTLHTRFTVDGEFNGRRITEQYELVFIARKIDGRWVFREVRIK
protease stability score: 2.4

SQLEVASTEALELLRFSLETGDWEFLLRLADPNTRIEINGVTFHGREDMEEIMEEKFRRFKNVKVELDVKEVHFQGDKVRIRVVEFWKVDGQEIFIDSRIVMIKVNGRWVYKELRVH
protease stability score: 0.7

SRAEEEARHLLHLLIHSLNTGDEDTSRKMLDPHVRLIIDGREHHGREDLLWFLRFLGFDHVHHVELHDLHDVNGRIKVDVKFHMFVGDKLIKTTVIYFILKINGRWVFESIKVE
protease stability score: 1.23

SREDELREEFLRRILEVLRTGDFDEWKKYLDPDTRNDINGVDWVGRETAAHELERMYRHIRIKDTKVHDVRVQGDKVHIDVRVLIEFDGRERILETHIVVEKVDGRWHLKHVRFN
protease stability score: 1.62

SREEEDAKLALDLLIEALKTGDEHEIKELLDPTTRMEVGDKELVGRENISKHVSDMVHRIDHIEVRLHDMTIINGVVHLDTRLILHFNGRTHTQETRVIVWKFNGRWIITHIHVK
protease stability score: 1.28

SREEEEATHAVNRWMQLFITGDEESLRELADPDDRINIDGKDFHGREEFEMFMRLFVERFKNLRVELEDTRITVQGDKITVRFKIHFNINGVQTKTEVIIFSTKVNGRWHFKSEEVRHR
protease stability score: 0.415

SREEEIAHDVFREWIESFRTGDEDHRTEMMDPNARVFVNGVEFVGRDEIVRFFRHLRFDNSRHEIKSVRVVDGVAHIDSHLELHGTVNGQRDRVSYKLNVHTSKIDGKWVITEVKVK
protease stability score: 2.03

SREEEIMRRFLELLILAFRTGDEDTYLKMLDPRVRLEINGRDLHGRETVREHYKDERDELGVSQFHIWVRDLRVQGDKIETEGHLEFDGRWLDIHFHAHFVDGRLKSFRIEIR
protease stability score: 1.32

SREEELAKKLLEIYSRSVETGDWKKLFELMDPNTRVEQGEWHFHGREEFHKLVHKFLERADVVHVEIDRIKVIGDFVHIDVVLHIHQGEFHHVVRTRLDYLKFNGRWVLQTIRIE
protease stability score: 1.6

SREEKEIKEIWELLVRSWLTGDEETLTHLLDPNARSVINGREYHGRETIAHELTRHLYELRIKDIELHHVDIIGDKVKIDSRVEYHFNGRETELKVEIVALKINGRWRLKDNIIK
protease stability score: 1.47

SREHKEAEDALRQWLETLRTGDERTMHELFDPNVRLHINGKEIHGREKVLTQLEHELKRFKNVRYELESIDITEHHVRVFGTSHVNGVEEKLEIVILKWDGRWRVQELYVHRV
protease stability score: 1.67

SRESEEAKDDWEKIINDLRTGDFRSLRELFDPNVRLETENHEFHGWETAEHMVKRFDHIHVRREHFDHIEIQGEKVILDGTMRMEFIINGVVYEKEQRVIIIFLKYNGRWLIKEVEFI
protease stability score: 0.759

SRIEKLIEHLVHLWLEIWRTGDEHSFTRLLDPHVRLRIGDKHFIGREDVVKFLRDHEKEWREDDVEIRDIRTQGDFLEVEITITGRFNGRDITREFRITMIVVDGRVKEIRISYE
protease stability score: 2.05

SRKDEHTHHLLHLFWEIFMTGDEERWTQLLDPNMRTEIDGKDLHGREDAIRFMIERLRQLGFDHMRLHHLENQGEKAHIDGTLEVGDKLVRVHFSTKIVNGRIKELTIKFH
protease stability score: 1.02

SSDKRDAHFAMDLYYEIHLTGDEDRWRHMADPNVRLHVGEKDFHGRELWFKFMHDFGLDKIEIELKDIEVQGEKVHLDGIIRFDGREHKVEVDLRKINGRWIIDEERYK
protease stability score: 1.13

SSEEEDIEWATEVLVMSFITGDWKLSHKLMDPNVLSIVNGREFHGRELAVKHLHEMTEKIKGLRIETHDLKHINIFNGRARVHSIVRGDINGRKVDSMIDVITNKFDGRWVIESVQFI
protease stability score: 1.45

SSEEHDAKNMHKMFREAMMTGDEDLLKNLLDPHVRLTFNGKDFHGWDRVYELFRKRLEHLGITWKDWDLHIIETQGDKVELNSTLHGRVGDKHVDDHTTLFIRKIDGQWVLTEVRIG
protease stability score: 1.46
